Key:
[1] = target: T1, human CD3 epsilon on cells (primary human T cells; mononuclear cells of human tissue) (human, UniProt P07766 23-207); assay: tissue cross-reactivity staining of cryosections of normal human tissues
T1 construct: Part of the TCR/CD3 complex on T cells; also called CD3ε; cell-surface CD3ε
Protocol: A GLP cross-reactivity study was conducted in cryosections of normal human tissues with the study drug and its anti-PSMA parental (bivalent) antibody (positive control). No unanticipated tissue cross-reactivity of the study drug was observed. Membrane staining of epithelial cells and staining of extracellular material in the prostate with both the study drug and the anti-PSMA parental antibody was anticipated due to PSMA expression in these tissues. Staining of mononuclear cells with the study drug only was expected based on the expression of CD3ε on T cells.

[2] = target: human PSMA on cells (LNCaP, C4-2B, LNCaP AR, 22RV1 prostate tumor cell lines; human prostate tissue) (human, UniProt Q04609 1-750); assay: cell-based or functional assay
Sequence of human PSMA on cells (LNCaP, C4-2B, LNCaP AR, 22RV1 prostate tumor cell lines; human prostate tissue) (Q04609 whole entry): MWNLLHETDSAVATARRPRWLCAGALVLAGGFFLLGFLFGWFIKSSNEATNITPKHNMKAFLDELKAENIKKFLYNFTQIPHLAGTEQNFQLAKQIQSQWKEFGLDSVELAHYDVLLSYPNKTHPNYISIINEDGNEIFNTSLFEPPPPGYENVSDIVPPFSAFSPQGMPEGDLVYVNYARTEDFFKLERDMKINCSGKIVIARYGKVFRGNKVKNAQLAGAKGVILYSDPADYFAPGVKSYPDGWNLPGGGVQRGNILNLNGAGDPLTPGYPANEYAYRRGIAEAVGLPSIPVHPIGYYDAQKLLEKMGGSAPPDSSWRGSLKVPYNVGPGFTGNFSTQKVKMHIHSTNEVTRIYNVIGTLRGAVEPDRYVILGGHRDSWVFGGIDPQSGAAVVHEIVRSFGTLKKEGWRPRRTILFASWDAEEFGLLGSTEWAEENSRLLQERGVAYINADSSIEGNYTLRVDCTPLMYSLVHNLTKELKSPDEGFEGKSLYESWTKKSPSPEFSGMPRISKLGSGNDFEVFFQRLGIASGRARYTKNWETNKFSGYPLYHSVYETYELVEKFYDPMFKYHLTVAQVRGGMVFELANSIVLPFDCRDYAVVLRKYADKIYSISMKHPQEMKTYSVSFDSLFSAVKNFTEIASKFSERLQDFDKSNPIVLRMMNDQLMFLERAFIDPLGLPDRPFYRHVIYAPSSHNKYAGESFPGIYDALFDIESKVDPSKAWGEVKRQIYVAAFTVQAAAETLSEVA

T1 sequence (P07766 23-207 limits assumed): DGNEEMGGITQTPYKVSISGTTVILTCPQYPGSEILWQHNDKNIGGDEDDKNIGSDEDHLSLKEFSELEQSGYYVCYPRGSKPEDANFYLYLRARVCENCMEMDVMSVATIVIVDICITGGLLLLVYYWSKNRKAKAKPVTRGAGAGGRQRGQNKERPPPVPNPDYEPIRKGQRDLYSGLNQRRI

B1: PS3B27 PSMAxCD3 bispecific antibody (PSMB127 x CD3B219) (bispecific antibody, human IgG4 S228P, kappa, lambda, F234A L235A)
heavy 1: not shown
light 1: not shown
heavy 2: EVQLVESGGGLVQPGGSLRLSCAASGFTFNTYAMNWVRQAPGKGLEWVARIRSKYNNYATYYAASVKGRFTISRDDSKNSLYLQMNSLKTEDTAVYYCARHGNFGNSYVSWFAYWGQGTLVTVSSASTKGPSVFPLAPCSRSTSESTAALGCLVKDYFPEPVTVSWNSGALTSGVHTFPAVLQSSGLYSLSSVVTVPSSSLGTKTYTCNVDHKPSNTKVDKRVESKYGPPCPPCPAPEAAGGPSVFLFPPKPKDTLMISRTPEVTCVVVDVSQEDPEVQFNWYVDGVEVHNAKTKPREEQFNSTYRVVSVLTVLHQDWLNGKEYKCKVSNKGLPSSIEKTISKAKGQPREPQVYTLPPSQEEMTKNQVSLTCLVKGFYPSDIAVEWESNGQPENNYKTTPPVLDSDGSFLLYSKLTVDKSRWQEGNVFSCSVMHEALHNHYTQKSLSLSLGK
light 2: QTVVTQEPSLTVSPGGTVTLTCRSSTGAVTTSNYANWVQQKPGQAPRGLIGGTNKRAPGTPARFSGSLLGGKAALTLSGVQPEDEAEYYCALWYSNLWVFGGGTKLTVLGQPKAAPSVTLFPPSSEELQANKATLVCLISDFYPGAVTVAWKADSSPVKAGVETTTPSKQSNNKYAASSYLSLTPEQWKSHRSYSCQVTHEGSTVEKTVAPTECS
notes: also called the study drug
binding result [1]: binds
CD25 expression on T cells co-cultured with C4-2B cells, median EC50 [2]: 0.06 nM
T cell dependent cytotoxicity of C4-2B cells, median EC50 [2]: 0.08 nM

Reference: patent US20210040209A1 (Janssen / Centocor, published 2021)
